Measured values reported in US20260070975A1 (SANTA ANA BIO, published 2026).

T1: His-tagged FLT3 extracellular domain (UniProt P36888 27-543, limits assumed)
T1 construct: extracellular domain; also called c-Kit family member; not shown: His tag
T1 sequence (looked up): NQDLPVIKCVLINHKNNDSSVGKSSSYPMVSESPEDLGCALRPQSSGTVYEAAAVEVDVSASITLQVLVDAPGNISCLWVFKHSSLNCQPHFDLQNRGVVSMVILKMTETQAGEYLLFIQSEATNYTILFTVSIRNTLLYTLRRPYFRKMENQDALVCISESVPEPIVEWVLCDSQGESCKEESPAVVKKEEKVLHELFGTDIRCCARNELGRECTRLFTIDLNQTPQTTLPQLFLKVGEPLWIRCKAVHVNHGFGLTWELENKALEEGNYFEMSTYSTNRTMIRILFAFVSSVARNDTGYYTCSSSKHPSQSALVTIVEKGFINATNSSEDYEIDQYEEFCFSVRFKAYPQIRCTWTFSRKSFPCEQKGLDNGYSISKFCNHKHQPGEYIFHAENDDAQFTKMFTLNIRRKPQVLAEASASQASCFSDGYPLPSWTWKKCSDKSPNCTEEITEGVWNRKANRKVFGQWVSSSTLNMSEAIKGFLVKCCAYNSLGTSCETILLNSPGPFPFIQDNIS


What was measured:
[1] = target: T2, Human siglec-6 expressed on the cell surface (HMC1.2 cells; HEK293 cells expressing human siglec-6) (human, UniProt O43699 27-453); assay: flow cytometry on HMC1.2 cells
T2 construct: whole, on cells; also called cell surface expressed siglec-6; CD327
Description: (§1) Target binding of siglec-6 antibodies to siglec-6-expressing cells was assessed by flow cytometry. Cultured HMC1.2 cells were resuspended in FACS Blocking Buffer (PBS+10% normal human serum) for 30 minutes. Following washing, cells were incubated with siglec-6 antibodies in FACS Buffer (PBS+0.5% bovine serum albumin+0.09% sodium azide) and incubated at 4° C. for 30 minutes, washed and incubated with PE-labeled anti-human or anti-mouse secondary antibodies. Cells were incubated at 4° C. for 30 minutes in the dark. Following washing, cytofluorimetric analysis was conducted using a BD FACS Symphony A3 (BD Biosciences). Cells were sorted by scatter properties and separated for single cell analysis using side scatter width vs side scatter area. Antibody binding to cells was quantitated by measuring fluorescent emissions of excitation wavelength of 561 nm using a 586/15 nm filter. All tested siglec-6 antibodies were capable of binding to cells expressing siglec-6.

[2] = target: T3, c-Kit expressed on the cell surface of M-07e cells (human, UniProt P10721 26-976); assay: cell-based or functional assay
[3] = target: T3, c-Kit expressed on the cell surface of …; assay: flow cytometry on M-07e cells
Description: as §1, with “c-Kit” for “siglec-6”, “c-Kit-expressing” for “siglec-6-expressing”, “M-07e” for “HMC1.2”, “anti-human” for “anti-human or anti-mouse”, “antibody.” for “antibodies.”, “c-Kit.” for “siglec-6.”

[4] = target: Human c-Kit (BLI analyte) (human, UniProt P10721 26-520, limits assumed); assay: BLI (Octet), antibody on capture sensor
Description: (§2) Further, binding affinities of c-Kit antibodies to human c-Kit and cynomolgus c-Kit were measured by biolayer interferometry ([…]) using an Octect instrument. Briefly, capture sensors were loaded with test antibodies with 3-fold dilutions. The association and dissociation rates to were determined and used to calculate the equilibrium dissociation constant KD (Table 3).

[5] = target: T4, Cynomolgus c-Kit (BLI analyte) (cynomolgus); assay: BLI (Octet), antibody on capture sensor
T4 construct: also called Cynomoguls c-Kit
Description: as §2

[6] = target: T5, His-tagged PDGFRa extracellular domain (UniProt P16234 24-528, limits assumed); assay: ELISA, His-tagged extracellular domain coated
T5 construct: extracellular domain; also called c-Kit family member; not shown: His tag
Description: (§3) His-tagged human c-Kit, His-tagged cynomolgus c-Kit, and His-tagged PDGFRa, PDGFRb, CSF1R, and FLT3 extracellular domains were immobilized on 96 well ELISA plates. Plates were washed with PBST (Phosphate buffered saline+0.05% Tween 20) and blocked for 1 hour with 1% BSA in PBS. Following washing with PBST, mAbs were added to the coated plate and incubated for 2 hours at room temperature. Plates were washed and incubated with HRP-conjugated goat anti-human IgG secondary antibody for 1 hour at room temperature. Following washing, antibody binding was detected colorimetrically by adding 3,3′,5,5′-tetramethylbenzidine (TMB) and incubated at room temperature for 10-20 minutes before adding 2.5N sulfuric acid stopping solution. Absorbance at 450 nm was measured on a plate reader (PerkinElmer). Data was analyzed using GraphPad Prism.

[7] = target: T6, His-tagged PDGFRb extracellular domain (UniProt P09619 33-532, limits assumed); assay: ELISA, His-tagged extracellular domain coated
T6 construct: extracellular domain; also called c-Kit family member; not shown: His tag
Description: as §3

[8] = target: T7, His-tagged CSF1R extracellular domain (UniProt P07333 20-517, limits assumed); assay: ELISA, His-tagged extracellular domain coated
T7 construct: extracellular domain; also called c-Kit family member; not shown: His tag
Description: as §3

[9] = target: T1, His-tagged FLT3 extracellular domain; assay: ELISA, His-tagged extracellular domain coated
Description: as §3

Human c-Kit (BLI analyte), sequence (P10721 26-520 limits assumed): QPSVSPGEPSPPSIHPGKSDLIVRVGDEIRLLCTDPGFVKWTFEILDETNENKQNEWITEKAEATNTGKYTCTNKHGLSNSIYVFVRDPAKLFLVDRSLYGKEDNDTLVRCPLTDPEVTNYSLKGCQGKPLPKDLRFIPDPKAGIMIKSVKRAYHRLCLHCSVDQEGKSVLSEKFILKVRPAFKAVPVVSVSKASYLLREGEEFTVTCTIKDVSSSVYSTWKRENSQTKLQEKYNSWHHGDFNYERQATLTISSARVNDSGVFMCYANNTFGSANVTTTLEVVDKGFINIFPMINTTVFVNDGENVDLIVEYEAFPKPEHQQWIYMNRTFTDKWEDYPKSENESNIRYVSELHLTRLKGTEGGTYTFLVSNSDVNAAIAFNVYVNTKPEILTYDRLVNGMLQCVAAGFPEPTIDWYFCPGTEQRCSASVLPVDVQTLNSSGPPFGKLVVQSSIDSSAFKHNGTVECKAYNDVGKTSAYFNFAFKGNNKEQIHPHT
T3 sequence (P10721 26-976): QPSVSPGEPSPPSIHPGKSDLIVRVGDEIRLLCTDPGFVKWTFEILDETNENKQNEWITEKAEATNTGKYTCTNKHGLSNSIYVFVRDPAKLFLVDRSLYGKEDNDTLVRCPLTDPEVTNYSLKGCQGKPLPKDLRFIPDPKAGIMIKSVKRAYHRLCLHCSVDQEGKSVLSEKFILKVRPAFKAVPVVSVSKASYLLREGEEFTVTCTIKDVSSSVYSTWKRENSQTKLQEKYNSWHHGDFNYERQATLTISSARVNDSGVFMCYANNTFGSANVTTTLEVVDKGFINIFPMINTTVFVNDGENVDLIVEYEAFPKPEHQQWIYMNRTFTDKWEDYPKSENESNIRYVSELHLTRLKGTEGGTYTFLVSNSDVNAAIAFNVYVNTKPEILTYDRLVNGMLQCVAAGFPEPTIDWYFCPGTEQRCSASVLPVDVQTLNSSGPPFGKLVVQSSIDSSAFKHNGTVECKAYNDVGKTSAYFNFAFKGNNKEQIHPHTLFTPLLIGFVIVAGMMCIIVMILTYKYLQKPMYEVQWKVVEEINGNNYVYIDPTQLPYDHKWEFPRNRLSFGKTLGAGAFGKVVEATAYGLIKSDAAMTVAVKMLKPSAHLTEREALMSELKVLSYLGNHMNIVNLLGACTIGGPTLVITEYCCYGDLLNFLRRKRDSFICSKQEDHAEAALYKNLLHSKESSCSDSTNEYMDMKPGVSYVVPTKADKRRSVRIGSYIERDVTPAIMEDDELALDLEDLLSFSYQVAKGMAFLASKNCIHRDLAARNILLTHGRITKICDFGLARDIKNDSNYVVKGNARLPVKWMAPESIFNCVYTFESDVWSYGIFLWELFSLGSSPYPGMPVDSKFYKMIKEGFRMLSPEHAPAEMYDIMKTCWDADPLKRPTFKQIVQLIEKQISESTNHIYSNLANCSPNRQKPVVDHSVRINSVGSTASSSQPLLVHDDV
T7 sequence (P07333 20-517 limits assumed): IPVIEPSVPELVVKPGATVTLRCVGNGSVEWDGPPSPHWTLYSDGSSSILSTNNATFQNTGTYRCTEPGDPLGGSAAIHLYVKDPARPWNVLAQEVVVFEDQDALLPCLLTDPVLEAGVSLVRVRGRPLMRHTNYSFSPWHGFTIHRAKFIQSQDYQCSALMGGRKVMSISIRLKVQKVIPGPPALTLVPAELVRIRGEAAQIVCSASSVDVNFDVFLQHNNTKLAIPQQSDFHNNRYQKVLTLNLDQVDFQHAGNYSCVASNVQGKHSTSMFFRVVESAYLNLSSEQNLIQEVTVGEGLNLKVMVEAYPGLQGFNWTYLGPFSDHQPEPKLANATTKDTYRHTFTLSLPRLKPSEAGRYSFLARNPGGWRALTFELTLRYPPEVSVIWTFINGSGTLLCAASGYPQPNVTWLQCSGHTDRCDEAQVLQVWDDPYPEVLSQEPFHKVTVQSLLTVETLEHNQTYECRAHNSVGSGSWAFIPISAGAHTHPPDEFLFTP
T5 sequence (P16234 24-528 limits assumed): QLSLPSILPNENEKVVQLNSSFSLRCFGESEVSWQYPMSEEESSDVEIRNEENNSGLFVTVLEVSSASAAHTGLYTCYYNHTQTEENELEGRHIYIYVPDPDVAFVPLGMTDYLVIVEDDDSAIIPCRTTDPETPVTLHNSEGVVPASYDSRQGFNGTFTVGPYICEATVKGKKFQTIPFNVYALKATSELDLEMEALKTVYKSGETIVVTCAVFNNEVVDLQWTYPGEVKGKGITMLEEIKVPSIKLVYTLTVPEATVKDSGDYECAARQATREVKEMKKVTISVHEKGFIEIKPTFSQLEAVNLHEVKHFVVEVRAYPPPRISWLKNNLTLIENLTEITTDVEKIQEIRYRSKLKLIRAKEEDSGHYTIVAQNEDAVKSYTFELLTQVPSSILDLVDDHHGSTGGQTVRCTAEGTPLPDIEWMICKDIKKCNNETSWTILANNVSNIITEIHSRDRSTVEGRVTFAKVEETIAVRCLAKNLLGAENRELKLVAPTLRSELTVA
T6 sequence (P09619 33-532 limits assumed): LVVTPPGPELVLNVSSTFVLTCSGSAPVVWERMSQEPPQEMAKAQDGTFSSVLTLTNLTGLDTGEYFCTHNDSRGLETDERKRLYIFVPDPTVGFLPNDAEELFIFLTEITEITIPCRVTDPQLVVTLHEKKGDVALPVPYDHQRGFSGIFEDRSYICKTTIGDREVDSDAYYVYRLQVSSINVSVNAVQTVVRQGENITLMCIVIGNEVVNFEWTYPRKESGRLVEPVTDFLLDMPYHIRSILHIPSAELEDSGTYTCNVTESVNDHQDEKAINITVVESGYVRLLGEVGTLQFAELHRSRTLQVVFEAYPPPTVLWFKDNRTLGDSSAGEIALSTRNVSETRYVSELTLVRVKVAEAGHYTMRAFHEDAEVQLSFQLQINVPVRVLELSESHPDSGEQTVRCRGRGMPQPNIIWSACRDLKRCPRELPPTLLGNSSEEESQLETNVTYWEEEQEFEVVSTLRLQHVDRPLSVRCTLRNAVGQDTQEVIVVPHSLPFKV
T2 sequence (O43699 27-453): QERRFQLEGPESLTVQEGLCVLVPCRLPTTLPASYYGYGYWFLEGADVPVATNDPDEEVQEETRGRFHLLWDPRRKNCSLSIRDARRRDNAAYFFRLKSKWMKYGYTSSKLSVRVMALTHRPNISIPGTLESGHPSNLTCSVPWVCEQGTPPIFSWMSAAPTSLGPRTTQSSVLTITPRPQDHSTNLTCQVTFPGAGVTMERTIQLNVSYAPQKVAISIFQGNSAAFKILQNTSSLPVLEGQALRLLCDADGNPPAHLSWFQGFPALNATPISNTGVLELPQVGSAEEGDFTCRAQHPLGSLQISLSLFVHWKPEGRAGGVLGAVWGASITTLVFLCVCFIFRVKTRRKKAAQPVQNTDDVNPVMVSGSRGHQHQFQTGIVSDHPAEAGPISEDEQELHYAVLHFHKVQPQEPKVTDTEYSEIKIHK

MFI [1] [MFI] | Percent Positive for Siglec-6 on HMC1.2 cells [1] [%] | IC50, inhibition of SCF-dependent proliferation of M-07e cells [2] [nM] | Measuring Fluorescent Intensity (MFI) [3] [MFI] | Percent Positive for c-Kit on M-07e cells [3] [%] | Kd [4] [nM] | Kd [5] [nM] | binding result [6] | binding result [7] | binding result [8] | binding result [9] | Binder
1970 | 99.9 | – | – | – | – | – | – | – | – | – | Murine anti-siglec-6 RND (mRND) (antibody, mouse IgG2a, kappa, V domains shown, also called murine RND; copies: 2 + 2) VH: QVQLQQPGAELVKPGASVKLSCKASGYAFTSYWMHWVKLRPGQGFEWIGEIYPTNGGTTYNEKFKRKATLTVDKSSSTAYMQLSSLTSEDSAVYYCTIEDFYAMDYWGQGTSVTVSS VL: not shown
– | – | 0.141 | 5020 | 99.5 | 0.199 | 0.232 | no binding | no binding | no binding | no binding | hSR1-1 (antibody, human IgG1, kappa, V domains shown, Humanized anti-c-Kit antibody; also called humanized SR1-1; hSR1-H2 / hSR1-L2) VH: QVQLVQSGAEVKKPGASVKVSCKASGYTFTSYNMHWVRQAPGQGLEWMGVIYSGNGDTSYAQKFQGRVTMTADTSTSTAYMELSSLRSEDTAVYYCARERDTRFGNWGQGTLVTVSS VL: DIQLTQSPSSLSASVGDRATITCRASESVDIYGNSFMHWYQQKPGKAPKLLIYLASNLESGVPSRFSGSGSGTDFTLTISSVQPEDFATYYCQQNNEDPYTFGQGTKLEIKR
– | – | 0.142 | 5200 | 99.7 | 0.245 | 0.389 | no binding | no binding | no binding | no binding | hSR1-2 (antibody, human IgG1, kappa, V domains shown, also called humanized SR1-2; hSR1-H3 / hSR1-L2) VH: QVQLVQSGAEVKKPGASVKMSCKASGYTFTSYNMHWVRQAPGQGLEWIGVIYSGNGDTSYAQKFQGRATLTADTSTSTAYMELSSLRSEDTAVYYCARERDTRFGNWGQGTLVTVSS VL: DIQLTQSPSSLSASVGDRATITCRASESVDIYGNSFMHWYQQKPGKAPKLLIYLASNLESGVPSRFSGSGSGTDFTLTISSVQPEDFATYYCQQNNEDPYTFGQGTKLEIKR
– | – | 0.141 | 4030 | 99.5 | 0.256 | 0.405 | no binding | no binding | no binding | no binding | hSR1-5 (antibody, human IgG1, kappa, V domains shown, also called humanized SR1-5; hSR1-H2 / hSR1-L2r) VH: QVQLVQSGAEVKKPGASVKVSCKASGYTFTSYNMHWVRQAPGQGLEWMGVIYSGNGDTSYAQKFQGRVTMTADTSTSTAYMELSSLRSEDTAVYYCARERDTRFGNWGQGTLVTVSS VL: DIQLTQSPSSLSASVGDRATITCRASESVDIYGNSFMHWYQQKPGKAPKLLIYLASNLESGVPSRFSGSGSRTDFTLTISSVQPEDFATYYCQQNNEDPYTFGQGTKLEIKR
– | – | 0.139 | 4960 | 99.8 | 0.386 | 0.563 | no binding | no binding | no binding | no binding | hSR1-4 (antibody, human IgG1, kappa, V domains shown, also called humanized SR1-4; hSR1-H3b / hSR1-L2) VH: QVQLVQSGAEVKKPGASVKMSCKASGYTFTSYNMHWVRQAPGQGLEWIGVIYSGNGDTSYAQKFQGRATLTADKSTSTAYMELSSLRSEDTAVYYCARERDTRFGNWGQGTLVTVSS VL: DIQLTQSPSSLSASVGDRATITCRASESVDIYGNSFMHWYQQKPGKAPKLLIYLASNLESGVPSRFSGSGSGTDFTLTISSVQPEDFATYYCQQNNEDPYTFGQGTKLEIKR
– | – | 0.152 | 3590 | 99.4 | 0.247 | 0.296 | no binding | no binding | no binding | no binding | hSR1-6 (antibody, human IgG1, kappa, V domains shown, also called humanized SR1-6; hSR1-H3 / hSR1-L2r) VH: QVQLVQSGAEVKKPGASVKMSCKASGYTFTSYNMHWVRQAPGQGLEWIGVIYSGNGDTSYAQKFQGRATLTADTSTSTAYMELSSLRSEDTAVYYCARERDTRFGNWGQGTLVTVSS VL: DIQLTQSPSSLSASVGDRATITCRASESVDIYGNSFMHWYQQKPGKAPKLLIYLASNLESGVPSRFSGSGSRTDFTLTISSVQPEDFATYYCQQNNEDPYTFGQGTKLEIKR
– | – | 0.113 | 5190 | 99.8 | 0.256 | 0.332 | no binding | no binding | no binding | no binding | hSR1-3 (antibody, human IgG1, kappa, V domains shown, also called humanized SR1-3; hSR1-H2b / hSR1-L2) VH: QVQLVQSGAEVKKPGASVKVSCKASGYTFTSYNMHWVRQAPGQGLEWMGVIYSGNGDTSYAQKFQGRVTMTADKSTSTAYMELSSLRSEDTAVYYCARERDTRFGNWGQGTLVTVSS VL: DIQLTQSPSSLSASVGDRATITCRASESVDIYGNSFMHWYQQKPGKAPKLLIYLASNLESGVPSRFSGSGSGTDFTLTISSVQPEDFATYYCQQNNEDPYTFGQGTKLEIKR
– | – | 0.283 | – | – | – | – | – | – | – | – | Murine anti-c-Kit SR1 (mSR1) (antibody, mouse IgG2a, kappa) heavy: QVQLQQPGAELVKPGASVKMSCKASGYTFTSYNMHWVKQTPGQGLEWIGVIYSGNGDTSYNQKFKGKATLTADKSSSTAYMQINSLTSEDSAVYYCARERDTRFGNWGQGTLVTVSAAKTTAPSVYPLAPVCGDTTGSSVTLGCLVKGYFPEPVTLTWNSGSLSSGVHTFPAVLQSDLYTLSSSVTVTSSTWPSQSITCNVAHPASSTKVDKKIEPRGPTIKPCPPCKCPAPNLLGGPSVFIFPPKIKDVLMISLSPIVTCVVVDVSEDDPDVQISWFVNNVEVHTAQTQTHREDYNSTLRVVSALPIQHQDWMSGKEFKCKVNNKDLPAPIERTISKPKGSVRAPQVYVLPPPEEEMTKKQVTLTCMVTDFMPEDIYVEWTNNGKTELNYKNTEPVLDSDGSYFMYSKLRVEKKNWVERNSYSCSVVHEGLHNHHTTKSFSRTPGK light: NIVLTQSPASLAVSLGLRATISCRASESVDIYGNSFMHWYQQKPGQPPKLLIYLASNLESGVPARFSGSGSRTDFTLTIDPVEADDAATYYCQQNNEDPYTFGGGTKLEIKRADAAPTVSIFPPSSEQLTSGGASVVCFLNNFYPKDINVKWKIDGSERQNGVLNSWTDQDSKDSTYSMSSTLTLTKDEYERHNSYTCEATHKTSTSPIVKSFNRNEC
